Data from publication PMC6196983, “The Native Monomer of Bacillus Pumilus Ribonuclease Does Not Exist Extracellularly” (BioMed Research International, 2018).

Molecular target: the molecule itself
Assay: NMR self-diffusion (hydrodynamic radius); 1.5 mg/ml binase in D2O at pH 3.0 and pH 6.4; BPP-LED stimulated echo, 600.13 MHz; radius from the Stokes-Einstein equation compared with the theoretical monomer size of 1.6 nm

B1: binase, secreted guanyl-preferring ribonuclease of Bacillus pumilus (enzyme, UniProt P00649 54-162, looked up)
chain: AVINTFDGVADYLIRYKRLPDNYITKSQASALGWVASKGNLAEVAPGKSIGGDVFSNREGRLPSASGRTWREADINYVSGFRNADRLVYSSDWLIYKTTDHYATFTRIR
notes: binase, secreted ribonuclease of Bacillus pumilus (formerly Bacillus intermedius); also called B. pumilus secreted RNase; Bacillus intermedius RNase; source: isolated from B. pumilus culture fluid, purified
- stoichiometry N: 2
